Test [1] addresses H5 hemagglutinin (HA) of H5N1 influenza A virus, strain not stated (influenza A virus (H5N1), strain not stated). As to the kind of experiment: cross-inhibition of binding to HA; competitor: FLD20.19.
Test [2] has the same target. Briefly: cross-inhibition of binding to HA; competitor: FLD194.
In test [3] the target is hemagglutinin of H5N1 clade 2.2 strain WS/Mong/244/05 (influenza A virus WS/Mong/244/05 (H5N1)). As to the kind of experiment: cell-based or functional assay.
Test [4] concerns the target hemagglutinin of H5N1 clade 1 strain A/Hong Kong/213/03 (influenza A virus A/Hong Kong/213/03 (H5N1)). Briefly: cell-based or functional assay.
In test [5] the target is hemagglutinin of A/Indonesia/5/05 (H5N1, clade 2) (influenza A virus A/Indonesia/5/05 (H5N1)). As to the kind of experiment: cell-based or functional assay.
In test [6] the target is hemagglutinin of H5N1 clade 1 strain VN/1194.04 (influenza A virus VN/1194.04 (H5N1)). As to the kind of experiment: cell-based or functional assay.
The target of test [7] is hemagglutinin of H5N1 clade 1 strain HK/491/97 (influenza A virus HK/491/97 (H5N1)). As to the kind of experiment: cell-based or functional assay.
The target of test [8] is hemagglutinin of H5N1 clade 2.3 strain Anhui/1/05 (influenza A virus Anhui/1/05 (H5N1)). Briefly: cell-based or functional assay.
Test [9] concerns the target hemagglutinin of H5N1 clade 2.2 strain TY/TY/1/05 (influenza A virus TY/TY/1/05 (H5N1)). As to the kind of experiment: cell-based or functional assay.
Test [10] deals with hemagglutinin of A/Vietnam/1203/04 (H5N1) (influenza A virus A/Vietnam/1203/04 (H5N1)). Briefly: cell-based or functional assay.
Test [11] deals with H5 hemagglutinin (HA) of H5N1 influenza A virus, strain not stated (influenza A virus (H5N1), strain not stated). Briefly: cross-inhibition of binding to HA; competitor: FLA3.14.

B1: FLD132 (antibody, V domains shown)
VH: EVQLVQSGAELKMPGESLKISCKASGYTFTNYWIGWVRQTPGKGLEWMGIIFPPDSQTSYSPSFQGQVTFSVDNSISVAYIQWSSLKASDTAIYYCARSGIFDWSAPLVEAFDIWGQGTVVTVSS
VL: DIQLTQSPSFLSASVGDGVTITCRASQDIYIYLAWYQQKPGKAPKLLIYAASTLQGGVPSRFSGSGSGTEFTLTINNLQPEDFATYFCQQLNGYPLTFGGGTKVEIK
Consider B1, for which the Inhibition of binding (%) in [1] came to 0%; in test [2], 52%; in [11] it was 0%. Also, the IC50, neutralisation of retroviral pseudotypes in test [3] turned out to be 1 ng/mL; in [4] it was 0.5 ng/mL; in test [6] it was 1.6 ng/mL; in test [8], 1800 ng/mL; in test [9], 1 ng/mL; in test [10] it was 1 ng/mL. Besides, the results for the Reciprocal neutralising titre of culture supernatant (reciprocal titre) in test [5], in test [7] and in test [10] were under 8, 2048 and 1024, respectively.

B2: FLD20.19 (antibody, V domains shown)
VH: QVQLVQSGAEVKKPGSSVTVSCKASGGTFSNYGISWVRQAPGQGLDWMGGIIPLFGTANYAQKFQGRVTITADESTSSSNMELSSLRSEDTAVYYCARDVHNYDFLTGYPLHLYGMDVWGQGTTVTVSS
VL: DIQMTQSPSSLSASVGDRVTITCRASQSISTYLNWYQQKPGIPPKLLINVASSLQSGVPSRFSGSGSGTDFTLTISSLQPEDFASYYCQQTYSSPPTFGQGTKVEIK
Regarding B2, the Inhibition of binding (%) is 100% in [1], 0% in test [2] and 0% in test [11]. Further, the IC50, neutralisation of retroviral pseudotypes in test [3] worked out at 4 ng/mL; in [4], 10 ng/mL; in test [5], 77 ng/mL; in [6] it was 13 ng/mL; in test [8] it was 104 ng/mL; in test [9] it was 10 ng/mL. This molecule also registered an IC50, neutralisation of retroviral pseudotypes in [10] of 16 ng/mL. Besides, the figures for the Reciprocal neutralising titre of culture supernatant (reciprocal titre) in test [5], in test [7] and in [10] were 813, 181 and 181, respectively.

B3: FLD122 (antibody, V domains shown)
VH: QFQLVQSGPEVKKPGTSVKVSCKASGYTSTTYGISWVRQVPGQGLEWMGWINPYNGNPHYGQKFQGRVTLTRDTSTNTAYLEILSLRSDDTAVYYCARDGWGQQLVPYYFDYWGQGTLVTVSS
VL: DIVMTQSPLSLPVTPGEPASISCRASQSLLHSNGYNYLDWYLQKPGQSPQLLIQLGSTRASGVPDRFSGSGSGTDFTLEISRVEAEDVGVYYCMQALQLPLAFGQGTRLEIK
Consider B3, for which the Inhibition of binding (%) was 100% in [1], 100% in test [2] and 65% in [11]. In addition, the IC50, neutralisation of retroviral pseudotypes in test [3] was 6 ng/mL; in test [4], 2 ng/mL; in test [5], 4 ng/mL; in [6], 6 ng/mL; in test [8], 19 ng/mL; in [9], 8 ng/mL. This molecule yielded an IC50, neutralisation of retroviral pseudotypes in test [10] of 5 ng/mL. The Reciprocal neutralising titre of culture supernatant (reciprocal titre) in test [5] was 362; in test [7], 161; in [10], 40.

B4: FLD129 (antibody, V domains shown)
VH: EVQLVESGGGLVQPGRSLRLSCAASGFTFSDFWMSWVRQAPGKGLEWVANIDQDGNERFYADSVKGRFTISRDNAKNSLYLQMTSLRADDTAVYYCARDGREGYFYGSGSFYNLKGLNWGQGTLLTVSS
VL: QSVLTQPPSVSAAPGQRVTISCSGTSSNIGKNYVSWYQQLPGAAPKLLIYDNDKRPSGIPDRFSGSKSGTSATLGITGLQTGDEADYYCGTWDSSLSVGMFGGGTRLTVL
Consider B4, for which the values for the Inhibition of binding (%) in test [1], in test [2] and in test [11] were 100%, 100% and 0%, respectively. Besides, the IC50, neutralisation of retroviral pseudotypes in test [3] was 3 ng/mL; in test [4], 0.5 ng/mL; in test [5], 678 ng/mL; in test [6] it was 1.2 ng/mL; in test [8], 16 ng/mL; in test [9], 6 ng/mL. For the same molecule, the IC50, neutralisation of retroviral pseudotypes in [10] amounted to 1.7 ng/mL. For the same molecule, the Reciprocal neutralising titre of culture supernatant (reciprocal titre) in [5] was under 8; in test [7], 1450; in test [10], 323.

B5: FLD84 (antibody, V domains shown)
VH: QVQLQESGPGLVKPSETLSLICAVSGASISSSYWSWIRQPPGKGLEWIGYIYYSGVTKYNPSLKSRVTLSVDTSKNHFSLKLSYVTAADTAVYYCARNLPDIAVVTAVQDATPVWFDPWGPGTLVSVSS
VL: DIQLTQSPSSLSASVGDRVTITCRASQGIITYLNWYQQKPGKAPKLLIYATYSLQNGVPSRFSGSGSGTDFTLTISSLQPEDFATYYCQQSYSSLMFTFGQGTKLDIK
B5: the Inhibition of binding (%) in [1] was determined as 100%; in test [2], 0%; in test [11], 0%. For the same molecule, the IC50, neutralisation of retroviral pseudotypes in test [3] was found to be 30 ng/mL; in [4], 14 ng/mL; in test [5], 30 ng/mL; in test [6], 17 ng/mL; in test [8], 118 ng/mL; in test [9], 32 ng/mL. In test [10], the IC50, neutralisation of retroviral pseudotypes is 42 ng/mL. In addition, the figures for the Reciprocal neutralising titre of culture supernatant (reciprocal titre) in test [5], in test [7] and in [10] were 102, 40 and 16, respectively.

Values taken from patent publication US20100278834A1.
